Test results as given in the MegaScale stability set (Tsuboyama et al. 2023).

B1: EEHEE_rd4_0469 (parent)
chain: ITIHVNGVTYHFDNPEEAEKFAQKMAKTYQLKMEIHNGEFHME

Variants of: B1
Experiment: folding stability dG (cDNA display proteolysis); higher = more stable
Conditions: PBS, room temperature

Folding stability dG [kcal/mol]: each site, then its substitutions
E39: Y 0.934, A 1.02, P 0.802, V 1.07, R 0.762, C 1.69, K 0.828, T 0.836, N 0.81, S 0.882, H 1.16, W 0.978, F 0.886, I 1.17, Q 1.11, M 0.924, L 0.728, G 0.755, D 0.969
E34: S 1.28, W 1.54, M 1.33, R 1.22, V 1.91, P 0.209, T 1.51, Q 0.991, Y 1.78, N 1.06
E43: H 1.46, D 0.889, V 2.36, M 1.69, F 2.01, C 2.31, Q 1.21, A 1.2, W 1.82, K 1.5, Y 1.94, R 1.56, T 1.72, N 1.17, P 0.817, I 2.02, G 1.14, S 1.34, L 1.61
F40: Y 1.31, Q 0.754, M 1.23, S 0.704, A 0.744, R 0.623, V 1.19, E 0.603, D 0.578, C 1.79, I 1.6, T 0.801, N 0.711, P 0.69, W 1.76, G 0.641, L 1.37, K 0.661, H 0.761
G38: R 0.609, C 2.21, S 0.699, Y 0.871, P 0.616, N 0.855, F 0.963, D 0.717, I 0.832, L 0.917, V 0.627, H 0.885, E 0.77, Q 0.664, K 0.72, M 0.798, T 0.717, A 0.774, W 0.914
N37: H 1.11, L 1.09, A 0.861, G 1.02, K 0.81, W 1.17, F 1.19, Y 1.14, Q 0.88, P 0.635, T 0.767, E 0.831, V 0.9, I 1.1, D 1.02, M 1.03, R 0.716, S 0.831
H41: A 0.623, D 0.697, N 0.659, L 0.929, C 1.72, R 0.848, Y 1.69, E 0.697, M 0.892, S 0.86, F 1.55, Q 0.682, I 1.08, G 0.628, K 0.756, P 0.588, W 1.57, V 1.11, T 0.857
M42: N 0.637, I 0.961, E 0.615, L 1.3, D 0.727, A 0.838, H 0.709, K 0.711, F 1.24, P 0.756, S 0.715, Q 0.661, Y 1.02, V 0.797, G 0.673, T 0.657, W 0.913, R 0.687
I35: W 1.06, M 0.949, N 0.687, P 0.562, A 0.721, T 0.802, G 0.722, D 0.68, Q 0.822, F 1.21, Y 1.24, K 0.644, E 0.844, V 1.03, L 1.07, H 0.724, R 0.522, S 0.764
H36: F 1.19, D 0.709, T 0.926, L 1.2, P 0.499, A 0.796, W 1.24, Y 1.26, S 0.832, V 1.35, E 0.92, K 1.28, C 1.69, Q 0.93, I 1.66, R 1.49, N 0.903, M 0.945, G 0.601
